Data reported in publication PMC8033513 (2021).

B1: extra‐cellular domain (ECD) of human UNC5H3 (domain or fragment)
chain: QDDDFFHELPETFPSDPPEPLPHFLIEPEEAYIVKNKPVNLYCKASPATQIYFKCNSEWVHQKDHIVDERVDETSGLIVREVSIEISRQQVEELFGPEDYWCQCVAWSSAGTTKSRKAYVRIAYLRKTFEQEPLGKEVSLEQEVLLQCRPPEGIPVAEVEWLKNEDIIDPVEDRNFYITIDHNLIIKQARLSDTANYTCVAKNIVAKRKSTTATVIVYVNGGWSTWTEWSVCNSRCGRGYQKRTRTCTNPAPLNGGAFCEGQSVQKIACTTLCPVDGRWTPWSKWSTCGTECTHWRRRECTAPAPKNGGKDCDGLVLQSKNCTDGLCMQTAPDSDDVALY
B2: extra‐cellular domain (ECD) of rat UNC5H2 (Fc fusion)
chain: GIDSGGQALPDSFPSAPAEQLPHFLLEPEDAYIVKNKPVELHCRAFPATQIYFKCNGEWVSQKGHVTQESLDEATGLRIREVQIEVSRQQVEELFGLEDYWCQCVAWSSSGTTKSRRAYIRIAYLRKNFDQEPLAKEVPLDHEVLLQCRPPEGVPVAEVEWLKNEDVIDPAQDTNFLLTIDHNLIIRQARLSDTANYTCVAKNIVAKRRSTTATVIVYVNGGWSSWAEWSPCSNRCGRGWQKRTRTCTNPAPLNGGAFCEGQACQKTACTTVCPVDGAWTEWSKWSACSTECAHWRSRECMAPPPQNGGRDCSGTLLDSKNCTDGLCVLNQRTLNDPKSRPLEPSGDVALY
B3: extra‐cellular domain (ECD) of mouse DCC (Fc fusion)
chain: HLQVTGFQIKPFTSLHFVSEPSDAVTMRGGNVLLNCSAESDRGVPVIKWKKDGLILALGMDDRKQQLPNGSLLIQNILHSRHHKPDEGLYQCEASLADSGSIISRTAKVTVAGPLRFLSQTESITAFMGDTVLLKCEVIGEPMPTIHWQKNQQDLNPLPGDSRVVVLPSGALQISRLQPGDSGVYRCSARNPASIRTGNEAEVRILSDPGLHRQLYFLQRPSNVIAIEGKDAVLECCVSGYPPPSFTWLRGEEVIQLRSKKYSLLGGSNLLISNVTDDDSGTYTCVVTYKNENISASAELTVLVPPWFLNHPSNLYAYESMDIEFECAVSGKPVPTVNWMKNGDVVIPSDYFQIVGGSNLRILGVVKSDEGFYQCVAENEAGNAQSSAQLIVPKPAIPSSSILPSAPRDVLPVLVSSRFVRLSWRPPAEAKGNIQTFTVFFSREGDNRERALNTTQPGSLQLTVGNLKPEAMYTFRVVAYNEWGPGESSQPIKVATQPELQVPGPVENLHAVSTSPTSILITWEPPAYANGPVQGYRLFCTEVSTGKEQNIEVDGLSYKLEGLKKFTEYTLRFLAYNRYGPGVSTDDITVVTLSDVPSAPPQNISLEVVNSRSIKVSWLPPPSGTQNGFITGYKIRHRKTTRRGEMETLEPNNLWYLFTGLEKGSQYSFQVSAMTVNGTGPPSNWYTAETPENDLDESQVPDQPSSLHVRPQTNCIIMSWTPPLNPNIVVRGYIIGYGVGSPYAETVRVDSKQRYYSIERLESSSHYVISLKAFNNAGEGVPLYESATTRSITDPTDPVDYYPLLDDFPTSGPDVSTPMLPPVGVQAVALTHEAVRVSWADNSVPKNQKTSDVRLYTVRWRTSFSASAKYKSEDTTSLSYTATGLKPNTMYEFSVMVTKNRRSSTWSMTAHATTYEAAPTSAPKDLTVITREGKPRAVIVSWQPPLEANGKITAYILFYTLDKNIPIDDWIMETISGDRLTHQIMDLSLDTMYYFRIQARNVKGVGPLSDPILFRTLKVEHPDKMANDQGRHGDGGYWPVDTNLIDRSTLNEPPIGQMHPPHGSVTPQKNSN
B4: extra‐cellular domain (ECD) of mouse Neogenin (Fc fusion)
chain: RPASGAAATKSGSPPQSAGASVRTFTPFYFLVEPVDTLSVRGSSVILNCSAYSEPSPNIEWKKDGTFLNLESDDRRQLLPDGSLFISNVVHSKHNKPDEGFYQCVATVDNLGTIVSRTAKLTVAGLPRFTSQPEPSSVYVGNSAILNCEVNADLVPFVRWEQNRQPLLLDDRIVKLPSGTLVISNATEGDGGLYRCIVESGGPPKFSDEAELKVLQDPEEIVDLVFLMRPSSMMKVTGQSAVLPCVVSGLPAPVVRWMKNEEVLDTESSGRLVLLAGGCLEISDVTEDDAGTYFCIADNGNKTVEAQAELTVQVPPGFLKQPANIYAHESMDIVFECEVTGKPTPTVKWVKNGDVVIPSDYFKIVKEHNLQVLGLVKSDEGFYQCIAENDVGNAQAGAQLIILEHDVAIPTLPPTSLTSATTDHLAPATTGPLPSAPRDVVASLVSTRFIKLTWRTPASDPHGDNLTYSVFYTKEGVARERVENTSQPGEMQVTIQNLMPATVYIFKVMAQNKHGSGESSAPLRVETQPEVQLPGPAPNIRAYATSPTSITVTWETPLSGNGEIQNYKLYYMEKGTDKEQDIDVSSHSYTINGLKKYTEYSFRVVAYNKHGPGVSTQDVAVRTLSDVPSAAPQNLSLEVRNSKSIVIHWQPPSSTTQNGQITGYKIRYRKASRKSDVTETLVTGTQLSQLIEGLDRGTEYNFRVAALTVNGTGPATDWLSAETFESDLDETRVPEVPSSLHVRPLVTSIVVSWTPPENQNIVVRGYAIGYGIGSPHAQTIKVDYKQRYYTIENLDPSSHYVITLKAFNNVGEGIPLYESAVTRPHTDTSEVDLFVINAPYTPVPDPTPMMPPVGVQASILSHDTIRITWADNSLPKHQKITDSRYYTVRWKTNIPANTKYKNANATTLSYLVTGLKPNTLYEFSVMVTKGRRSSTWSMTAHGATFELVPTSPPKDVTVVSKEGKPRTIIVNWQPPSEANGKITGYIIYYSTDVNAEIHDWVIEPVVGNRLTHQIQELTLDTPYYFKIQARNSKGMGPMSEAVQFRTPKADSSDKMPNDQALGSAGKGSRLPDLGSDYKPPMSGSNSPHGSPTSPLDSNML
B5: extra‐cellular domain (ECD) of human UNC5H1 (domain or fragment)
chain: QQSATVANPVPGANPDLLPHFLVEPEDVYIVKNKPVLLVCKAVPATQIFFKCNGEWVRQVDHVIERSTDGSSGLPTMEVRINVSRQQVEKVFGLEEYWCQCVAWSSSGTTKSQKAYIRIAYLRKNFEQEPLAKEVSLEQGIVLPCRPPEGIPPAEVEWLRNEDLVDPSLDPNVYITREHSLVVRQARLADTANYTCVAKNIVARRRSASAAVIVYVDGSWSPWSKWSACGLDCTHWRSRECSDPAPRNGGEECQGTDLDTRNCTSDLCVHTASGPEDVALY

Experiments:
Experiment in all cases: BLI
human netrin‐1 = human netrin‐1 (human, UniProt O95631 25-604)
[1] = biological target: B2
[2] = biological target: B5
[3] = biological target: B4
[4] = biological target: B3
[5] = biological target: B1

Kd (human netrin‐1) [nM] | Binder | other results
5.4 | B1 | 
6.9 | B2 | 
6.3 | B3 | 
 | chicken netrin‐2L (netrin‐2‐like) (ligand) not shown | Kd [1]: 8.8 nM; Kd [2]: 106 nM; Kd [3]: 51.7 nM; Kd [4]: 31 nM; Kd [5]: 4.3 nM
7.8 | B4 | 
12.2 | B5 | 
